Reference: US20230093399A1, “METHODS FOR GENERATING PLURIPOTENT STEM CELL-DERIVED BROWN FAT CELLS” (AgeX Therapeutics, Inc., priority 2013, published 2023)

Tested on: cell line E72
Assay: Differentiation of cell line E72 in HyStem, gene expression
Assay type: cell-based, human
Procedure: HyStem-C (BioTime, Inc. Alameda, Calif.) (BioTime, Alameda, Calif., USA) was reconstituted following the manufacturer's instructions. Briefly, the HyStem component (thiol modified hyaluronan, 10 mg) was dissolved in 1.0 ml degassed deionized water for about 20 minutes to prepare a 1% w/v solution. The Gelin-S component (thiol modified gelatin, 10 mg) was dissolved in 1 ml degassed deionized water to prepare a 1% w/v solution, and PEGDA (PEG diacrylate, 10 mg) was dissolved in 0.5 ml degassed deionized water to prepare a 2% w/v solution. HyStem (1 ml, 1% w/v) was mixed with Gelin-S (1 ml, 1% w/v) immediately before use. Pelleted cells were resuspended in recently prepared HyStem:Gelin-S (1:1 v/v) mix described above. Upon the addition of crosslinker PEGDA, the cell suspension, at a final concentration of 2.0×10^7 cells/ml, was aliquoted at 25 μl aliquot four to five times into each well of 6 well plates (Corning 3516) after partial gelation to form attached beads. Following complete gelation (20 minutes), chondrogenic medium was added to each well (i.e about 4 ml/each well of a 6 well plate). […]
The Gelin-S® component (10 mg of thiol-modified gelatin (BioTime)) is dissolved in 1.0 ml of degassed deionized water to prepare a 1% w/v solution, and polyethylene glycol diacrylate (10 mg of PEGDA) is dissolved in 0.5 ml of degassed deionized water to prepare a 2% w/v solution. […] At the desired time point, hydrogel constructs were either fixed and processed for immunohistochemical analysis or lysed using RLT (Qiagen, CA, USA) with 1% beta-mercaptoethanol for total RNA to analyze transcript expression using quantitative real-time PCR (qRT-PCR) and/or whole-genome microarray.
Total RNA was extracted directly from cells growing in 6-well plates or 10 cm tissue culture dishes using Qiagen RNeasy mini kits according to the manufacturer's instructions. RNA concentrations were measured using a Beckman DU530 or Nanodrop spectrophotometer and RNA quality was determined by denaturing agarose gel electrophoresis or using an Agilent 2100 bioanalyzer. […] The cRNA was hybridized to Illumina BeadChips, processed, and read using a BeadStation array reader according to the manufacturer's instructions (Illumina, San Diego, Calif., USA).

B1: BMP4: Bone Morphogenetic Protein 4, TGF-beta superfamily member (protein, UniProt P12644 293-408, looked up)
Bone morphogenetic protein 4: SPKHHSQRARKKNKNCRRHSLYVDFSDVGWNDWIVAPPGYQAFYCHGDCPFPLADHLNSTNHAIVQTLVNSVNSSIPKACCVPTELSAISMLYLDEYDKVVLKNYQEMVVEGCGCR
For B1, the “markers normally associated with enamel, enamelin (ENAM) and amelogenin (AMELX)” value (E72, HyStem in the presence of BMP4 and TGFβ3) was “expressed the markers normally associated with enamel”, the “markers of endochondral ossification including COL2A1, ALPL, IBSP, and osteopontin (SPP1)” value (E72 passage 11, 21 days in HyStem with 10 ng/mL TGFβ3 together with BMP4 (10 ng/mL) or BMP2 (50 ng/mL)) was “relatively high levels” and the “adipocyte markers FABP4 and CD36” value (E72 passage 12, 21 days in HyStem with 10 ng/mL BMP4) was “relatively high levels”.
